Laboratory results taken from IntAct's records for PubMed 23871208.

B1: Tyrosine-protein phosphatase non-receptor type 22 (Homo sapiens), Q9Y2R2 (parent)
chain: MDQREILQKFLDEAQSKKITKEEFANEFLKLKRQSTKYKADKTYPTTVAEKPKNIKKNRYKDILPYDYSRVELSLITSDEDSSYINANFIKGVYGPKAYIATQGPLSTTLLDFWRMIWEYSVLIIVMACMEYEMGKKKCERYWAEPGEMQLEFGPFSVSCEAEKRKSDYIIRTLKVKFNSETRTIYQFHYKNWPDHDVPSSIDPILELIWDVRCYQEDDSVPICIHCSAGCGRTGVICAIDYTWMLLKDGIIPENFSVFSLIREMRTQRPSLVQTQEQYELVYNAVLELFKRQMDVIRDKHSGTESQAKHCIPEKNHTLQADSYSPNLPKSTTKAAKMMNQQRTKMEIKESSSFDFRTSEISAKEELVLHPAKSSTSFDFLELNYSFDKNADTTMKWQTKAFPIVGEPLQKHQSLDLGSLLFEGCSNSKPVNAAGRYFNSKVPITRTKSTPFELIQQRETKEVDSKENFSYLESQPHDSCFVEMQAQKVMHVSSAELNYSLPYDSKHQIRNASNVKHHDSSALGVYSYIPLVENPYFSSWPPSGTSSKMSLDLPEKQDGTVFPSSLLPTSSTSLFSYYNSHDSLSLNSPTNISSLLNQESAVLATAPRIDDEIPPPLPVRTPESFIVVEEAGEFSPNVPKSLSSAVKVKIGTSLEWGGTSEPKKFDDSVILRPSKSVKLRSPKSELHQDRSSPPPPLPERTLESFFLADEDCMQAQSIETYSTSYPDTMENSTSSKQTLKTPGKSFTRSKSLKILRNMKKSICNSCPPNKPAESVQSNNSSSFLNFGFANRFSKPKGPRNPPPTWNI
partner: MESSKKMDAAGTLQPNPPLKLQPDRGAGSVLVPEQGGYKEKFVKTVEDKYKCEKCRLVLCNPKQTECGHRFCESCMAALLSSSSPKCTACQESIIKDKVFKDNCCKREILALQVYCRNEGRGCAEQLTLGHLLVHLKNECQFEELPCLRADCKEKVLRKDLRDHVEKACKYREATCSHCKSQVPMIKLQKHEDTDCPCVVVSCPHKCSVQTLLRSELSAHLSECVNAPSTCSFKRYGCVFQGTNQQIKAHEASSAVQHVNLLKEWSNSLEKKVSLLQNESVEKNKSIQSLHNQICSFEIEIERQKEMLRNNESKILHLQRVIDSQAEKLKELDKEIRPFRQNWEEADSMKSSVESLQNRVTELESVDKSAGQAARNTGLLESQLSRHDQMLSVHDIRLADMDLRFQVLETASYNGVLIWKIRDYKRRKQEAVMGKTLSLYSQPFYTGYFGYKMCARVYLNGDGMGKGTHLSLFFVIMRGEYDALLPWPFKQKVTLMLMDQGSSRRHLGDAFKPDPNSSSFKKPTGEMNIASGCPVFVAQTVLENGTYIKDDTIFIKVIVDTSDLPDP

Variants of: B1
Conditions: with traf3_mouse Traf3, Q60803

effect of a mutation on the interaction	Variant
decreasing interaction strength	R620W
